Our source for the Km, kcat and kcat/Km values is article PMC7948467, “Discovery of an ultraspecific triuret hydrolase (TrtA) establishes the triuret biodegradation pathway” (The Journal of Biological Chemistry, 2020).

Substrate in the data set: NC(=O)NC(=O)NC(N)=O
As to the kind of experiment: ammonia release, Berthelot assay. In kind it is biochemical, Herbaspirillum sp. BH-1. Particulars: phosphate buffer.

Setting [1] is: pH 6.5 (optimum), 25 °C, His-tag kept.

B1: TrtA (Herbaspirillum sp. BH-1) (protein)
chain: MIRIDATPYPYQFHPRSTALVVIDMQRDFIEEGGFGSALGNDVRPLAAIVPTVAALLQLAREAGMLVVHTRESHLPDLSDCPRSKRLRGNPTLGIGDVGPMGRILVQGEPGNQILPQLAPVEGELVIDKPGKGAFYATDLHAQLQERRITHLLVAGVTTEVCVQTSMREANDRGYECLVIEDACASYFPDFHRITLEMLTAQGGIVGWRTPLAQLQAGVAAYTGENP
notes: N-terminal 6xHis tag and thrombin site kept, pET28a, E. coli BL21(DE3), codon-optimized; subunit 24 kDa, homodimer
For B1, under setting [1], the Km – broadly, the concentration of substrate that gives half-maximal velocity – came to 21 ± 3 µM; the kcat (usually the maximal rate divided by the concentration of active sites) was 11 ± 1 s⁻¹; the kcat/Km – broadly, the second-order rate constant that governs catalysis at low substrate concentration – came out at 530000 ± 100000 M⁻¹ s⁻¹.

B2: TrtA +Cleaved His-tag (Herbaspirillum sp. BH-1) (protein)
chain: MIRIDATPYPYQFHPRSTALVVIDMQRDFIEEGGFGSALGNDVRPLAAIVPTVAALLQLAREAGMLVVHTRESHLPDLSDCPRSKRLRGNPTLGIGDVGPMGRILVQGEPGNQILPQLAPVEGELVIDKPGKGAFYATDLHAQLQERRITHLLVAGVTTEVCVQTSMREANDRGYECLVIEDACASYFPDFHRITLEMLTAQGGIVGWRTPLAQLQAGVAAYTGENP
notes: N-terminal 6xHis tag cut by thrombin, E. coli BL21(DE3); homodimer ~48 kDa; crystal rows placed here, but may be the C-terminal deletion construct
As for B2, where the note is “pH 8, 25 °C”, the Km was 15 ± 3 µM, the kcat came to 8.8 ± 0.4 s⁻¹ and the kcat/Km came to 610000 ± 160000 M⁻¹ s⁻¹.
